# Test results from patent US9243032B2, “Compositions for treatment of neurodegenerative diseases” (Ramot at Tel-Aviv University Ltd., priority 2009, dated 2016).
# “And” between values parts separate entries of the source, which are not always exact repeats. Equal entries are not always repeated. Square brackets hold non-standard residues; d marks the D form. Ends that are not written are not given here. Peptide text beside a SMILES is read from it.
# What was measured:
# α-syn monomers = molecular target: T1, α-syn monomers (Homo sapiens, UniProt P37840); test: Fluorescence anisotropy affinity study; assay type: binding; settings: FIG. 5B, read-out: affinity constant (Kd) towards α-syn monomers
# T1 construct: made in house; host or cells: E. coli BL21, pT7-7 vector
# Procedure: Fluorescence Anisotropy Studies: β-syn 36 in which tyrosine was substituted with tryptophan (SEQ ID NO: 22—[…]) was dissolved to a concentration of 54 μM. The solution was immediately mixed with α-syn monomer stock solution to varying final concentrations. The peptide polarization measurements were carried out using an ISS K2 fluorometer. The solutions were excited at 280 nm and emission was monitored at 350 nm. For each single point, at least five measurements were collected and their average values were used for the calculation. All experiments were performed using ultra pure water.
# To determine the affinity of the interaction between β-syn 36 and α-syn monomers, a peptide containing tryptophan instead of tyrosine at position 39 within β-syn was used, exploiting its intrinsic fluorescence in a fluorescence anisotropy assay. […] Increasing amount of α-syn monomers were titrated into a solution of β-syn 36 peptide and anisotropy was determined (FIG. 5B). The affinity constant was calculated as ˜1 μM.
# [1] = In vitro peptide stability in mouse brain homogenate; assay type: in vitro ADME; settings: fresh mouse brain homogenate, 2 hours, 37° C., HPLC, FIGS. 6A-C
# Procedure: In Vitro Assay of Peptide Stability: Peptides were dissolved to form a 1 mM solution in 50 μM Tris buffer (PH=7.6). 120 μl of the peptide solution was diluted into a 10% freshly-taken mouse brain homogenate without the cerebellum (in 1×Tris buffer and 0.5% Triton X-100). A mixture containing 20% peptide solution and 80% mouse brain homogenate was incubated at 37° C. with delicate shaking for 2 hours. The enzyme reaction was stopped by the addition of 0.1 M HCL solution, followed by denaturation of the protein using CH3OH and incubation at 20° C. for 1 hour. The precipitated proteins were centrifuged at 29,000×g for 20 minutes at 4° C. and the supernatant containing the peptide was concentrated under vacuum and separated using a C18 HPLC column. The area of the peak (UV absorbance at 280 nm) corresponding to the intact peptide was compared with an equivalent sample incubated in 50 μM Tris buffer.
# Later, the stability of peptide β-syn 36 and the modified retro-inverso peptide was compared using fresh mouse brain homogenate to model serum degradation for a period of 2 hours.
# [2] = test system: flies expressing A53T α-syn in their nervous system; assay type: in vivo, Drosophila
# Procedure: Fly Keeping: Flies were reared on standard corneal-molasses medium and were kept at 25° C. Male flies were crossed with virgin females collected no longer than 8 hours or 18 hours after eclosion at 25° C. or 18° C. respectively. Adult offspring (F1) from the crosses were collected up to 9 days after the beginning of their eclosion at 25° C. in order to avoid offspring from the next generation (F2).
# Fly Crossing: Male flies carrying the driver elav-Ga14 on their X chromosome were crossed with females carrying the A53T α-syn transgene located on their X chromosome under the UAS promoter. […] Offspring of male flies carrying the driver elav-Ga14 crossed with WT OR females served as control.
# Special Fly Feeding: β-syn retro-inverso peptide was added to standard corneal-molasses medium at a concentration of 0.75 mg/ml. The peptide was mixed thoroughly into the medium at 40° C. and the mixture was aliquot into rearing vials. The vials were kept at 4° C. until use. Crosses were performed either on regular Drosophila medium (control) or on medium supplemented with the peptide. Animals were fed on the appropriate medium from the beginning of the larval stage. After eclosion, offspring were transferred into a new vial that was pre-dripped with 0.75 mg/ml peptide solution every second day.
# Locomotive (Climbing) Assay: Test tubes, each containing 10 flies, were tapped gently on the table and were let stand for 20 seconds. The percent of flies which climbed about one centimeter from the bottom of the test tube was then calculated over time. Each class had five independent test tube repeats.
# In order to assess the effect of the peptide on α-syn in the living organism, a Drosophila model of PD was used. The transgenic flies over express the mutated […] α-syn in their nervous system, via the Gal4-UAS system. A common behavioral phenotype of these flies is defective locomotion; while normal flies tend to climb up along the tube, these flies remain at the bottom (Ueda et al., (1993) Proc Natl Acad Sci USA 90(23), 11282-11286). […] This cross was performed either on regular Drosophila medium or on medium supplemented with 0.75 mg/mL β-syn 36 retro-inverso peptide.
# α-syn [3] = molecular target: T2, α-syn (Homo sapiens, UniProt P37840); test: Soluble oligomer formation, Western blot; assay type: biochemical; settings: soluble fraction, ~20-24 hours incubation, FIG. 4B
# T2 construct: made in house; host or cells: E. coli BL21, pT7-7 vector
# Procedure: Determination of Soluble Oligomer Formation: Monomeric α-syn was dissolved to a concentration of 200 μM in 100 mM Tris buffer (pH 7.4) and was immediately mixed with or without different β-syn derived peptides at a 1:1 ration to a final concentration of 100 μM, as was described above for the aggregation assay. […], 10 μl of the protein were centrifuged at 13000 RPM for 10 minutes, the supernatant was collected and electrophoresed in acrylamide gel using native loading buffer without β-mercaptoethanol and boiling. The gel was washed 3 times in ddH2O and samples were then transferred to the nitrocellulose membrane using semi-dry blot technique applying 323 mA current for 30 minutes. The membrane was blocked for 1 hour using 5% milk diluted in TBS (0.3% Tween) while shaking. Anti α-syn diluted 1:1000 (Santa Cruz Biotechnology) in 5% milk in TBS (0.3% tween) was added to the membrane for 2 hours incubation followed by several washes with TBS (0.3% Tween). Rabbit anti mouse IgG (Fc specific)-HRP conjugated antibody diluted 1:5000 in 5% milk diluted in TBS (0.3% Tween) was administrated for 1 hour at RT while shaking. Blots were developed after thorough TBS (0.3% Tween) washes using Enhanced Chemiluminescence System (ECL) according to the manufacturer's instructions.
# To examine the ability of the peptides to inhibit the early stage of aggregation, soluble fractions of α-syn were collected after incubation with the β-syn peptides. The reaction mixtures were separated using SDS-PAGE followed by western blot analysis using a specific anti α-syn antibody (Santa-Cruz) (FIG. 4A).
# α-syn [4] = molecular target: T2, α-syn; test: ThT fluorescence assay of α-syn fibril formation; assay type: biochemical; settings: for inhibition of fibril formation: as summarised in Example 4; for dose-dependent inhibition of α-syn aggregation: FIG. 3C
# Procedure: ThT Florescence Assay: α-syn was dissolved to a concentration of 200 μM in 100 mM Tris buffer (pH 7.4). In order to obtain the monomeric fraction, the protein was filtered through a 100 kDa centricon. Since α-syn is not a globular protein but a natively unfolded one, only monomers and some dimers pass through the filter. […] The samples were incubated at 37° C. with agitation of 850 RPM as described by Tsigelny et al. (Tsigelny et al., 2007 Febs J 274(7), 1862-1877) and the fibrillogenesis rate was followed by thioflavin T (ThT) fluorescence assay (excitation at 450 nm, 2.5 nm slit, and emission at 480 nm, 5 nm slit), after three days of incubation. ThT was added to a 500-fold diluted sample and measured using a Jobin Yvon Horiba Fluoromax 3 fluorimeter.
# In order to examine the inhibitory effect of the peptides on α-syn fibril formation, the Thioflavin-T (ThT) binding assay was used. This method provides quantitative information on amyloid fibril growth. α-syn was incubated for several days at 37° C. with vigorous shaking to allow the formation of amyloid fibrils with or without the different β-syn-derived peptides. The fibrillization process was monitored for three days.
# α-syn [5] = molecular target: T2, α-syn; test: Transmission electron microscopy of α-syn fibrils; assay type: biochemical; settings: samples from the ThT experiment; FIGS. 3D-K
# Procedure: Transmission Electron Microscopy: Samples (10 μL) from the α-syn ThT fluorescence assay (with and without inhibitors) were placed on 400-mesh copper grids covered by carbon-stabilized Formvar film (SPI Supplies, West Chester, Pa.). After 1.5 minutes, excess fluid was removed, and the grids were negatively stained with 10 μl of 2% uranyl acetate solution for 2 minutes. Finally, excess fluid was removed and the samples were viewed in a JEOL 1200EX electron microscope operating at 80 kV.
# Transmission electron microscopy (TEM) analysis was performed on samples of α-syn with and without the β-syn inhibitors.
molecule,measurement,setting,value
CC(C)C[C@H](NC(=O)[C@@H](NC(=O)CN)C(C)C)C(=O)N[C@@H](Cc1c[nH]c2ccccc12)C(=O)N[C@H](C(=O)NCC(=O)N[C@@H](CO)C(=O)N[C@@H](CCCCN)C(=O)N[C@H](C(=O)N[C@@H](CCCNC(=N)N)C(=O)O)[C@@H](C)O)C(C)C (H-GVLWVGSKTR-OH; N-terminus and C-terminus assumed),Kd,α-syn monomers,~1 µM and 1 µM
CC(C)C[C@@H](NC(=O)[C@@H](Cc1ccc(O)cc1)NC(=O)[C@H](NC(=O)CNC(=O)[C@@H](CO)NC(=O)[C@@H](CCCCN)NC(=O)[C@H](NC(=O)[C@H](N)CCCNC(=N)N)[C@H](C)O)C(C)C)C(=O)N[C@@H](C(=O)NCC(=O)O)C(C)C [β-syn 36 retro-inverso peptide] (H-[dR][dT][dK][dS]G[dV][dY][dL][dV]G-OH),stability in brain homogenate,[1],elevation in stability
same,stability in brain homogenate,[1]; listed as retro-inverso analogue,stable in human serum
same,increase in climbing compared to untreated group,"[2]; A53T α-syn flies, day 27",30%
same,percent of flies climbing,"[2]; A53T α-syn flies, medium with 0.75 mg/mL peptide, day 27",66%
same,effect on locomotion of control flies,[2]; control flies on medium with peptide,no significant effect
same,phenotypic recovery of A53T α-syn flies,[2]; medium with 0.75 mg/mL peptide,great phenotypic recovery
"AATGLVKREE [β-syn 78, decamer, aa 78-87 of β-syn]",inhibition of oligomer formation,α-syn [3],inhibited oligomers
same,inhibition of fibril formation,α-syn [4],not fibril formation
"GVLYVGSKTR [β-syn 36, decamer, aa 36-45 of β-syn, natural L-amino acids]",inhibition of oligomer formation,α-syn [3],inhibited almost completely the formation of both aggregation types
same,dose-dependent inhibition of α-syn aggregation,"α-syn [4]; ThT, peptide excess 5:1 (molar ratio)",less efficient
same,dose-dependent inhibition of α-syn aggregation,"α-syn [4]; ThT, peptide excess 10:1 (molar ratio)",still efficient
same,"inhibition of α-syn aggregation, kinetic analysis","α-syn [4]; ThT, β-syn 36 compared with β-syn 39, FIG. 3B",better inhibition
same,inhibition of fibril formation,α-syn [4],inhibited almost completely the formation of both aggregation types
same,fibril formation by TEM,α-syn [5],almost completely inhibited fibril formation
"SMAKEGV [β-syn 6short, seven amino acids peptide, aa 9-15 of β-syn, positive control selected by Windisch et al, reference compound]",inhibition of oligomer formation,α-syn [3],not the oligomers formation
same,inhibition of fibril formation,α-syn [4],inhibited the fibrils
"VLYVGSKTRE [β-syn 37, decamer, aa 37-46 of β-syn]",inhibition of oligomer formation,α-syn [3],not the oligomers formation
same,inhibition of fibril formation,α-syn [4],inhibited the fibrils
"YVGSKTR ([dY][dV]G[dS][dK][dT][dR]) [β-syn 36D short, β-syn 36D lacking amino acids G, V, L]",inhibition effect on α-syn aggregation,"α-syn [4]; ThT, FIG. 7F",no inhibition effect
